# Reference: PMC6520340, “Development of a ribonuclease containing a G4-specific binding motif for programmable RNA cleavage”
# Target: RHAU140-RNase HI fusion (Homo sapiens (RHAU) / Bacillus …, UniProt Q9H2U1 53-192+=SGGGSGGGSGGGSGGG+Q9KEI9:59-196, internal_change)
# Assay: EMSA; 10 uM DNA, 50 uM protein; 100 mM K+; Native 10% PAGE in 1X TBE, 20 mM potassium phosphate, 100 mM KCl, pH 7.0; UV shadowing; temperature not stated
# Conditions: protein: recombinant
# RHAU140-RNase HI fusion, sequence (Q9H2U1 other isoform, or with tags, fused parts or gaps): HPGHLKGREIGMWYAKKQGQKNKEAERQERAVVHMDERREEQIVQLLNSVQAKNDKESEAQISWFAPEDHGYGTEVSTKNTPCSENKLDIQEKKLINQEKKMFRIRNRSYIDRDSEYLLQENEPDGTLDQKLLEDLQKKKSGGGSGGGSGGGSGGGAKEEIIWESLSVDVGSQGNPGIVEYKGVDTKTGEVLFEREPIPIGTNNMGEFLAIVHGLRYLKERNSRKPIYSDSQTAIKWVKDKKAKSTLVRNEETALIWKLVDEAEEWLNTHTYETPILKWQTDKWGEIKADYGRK
Binder,binding result (parallel G4 with 3' single-stranded tail),binding result (single strand)
TTGGGTGGGTGGGTGGGTTCAACGACGACGGCATCATC (structured_DNA) [B1],binds,–
TTGACTAAGTGCCTTAGTTCAACGACGACGGCATCATC (ssDNA) [B0],–,no binding
